Experimental data from the DeepSol protein solubility set.

Assay: soluble on expression in E. coli; label from the status in PepcDB or PDB records

| Sequence | soluble on expression in E. coli |
| --- | --- |
| SNALNLPYDEHADAWTQVKKALAAGKRTHKPTLLVFGANWCTDCRALDKSLRNQKNTALIAKHFEVVKIDVGNFDRNLELSQAYGDPIQDGIPAVVVVNSDGKVRYTTKGGELANARKMSDQGIYDFFAKITE | soluble |
| SYLGSEFDNVELKDLANVLSFGEAKLGDNGQKFNFLFHTASSNVWVPSIKCTSESCESKNHYDSSKSKTYEKDDTPVKLTSKAGTISGIFSKDLVTIGKLSVPYKFIEMTEIVGFEPFYSESDVDGVFGLGWKDLSIGSIDPYIVELKTQNKIEQAVYSIYLPPENKNKGYLTIGGIEERFFDGPLNYEKLNHDLMWQVDLDVHFGNVSSKKANVILDSATSVITVPTEFFNQFVESASVFKVPFLSLYVTTCGNTKLPTLEYRSPNKVYTLEPKQYLEPLENIFSALCMLNIVPIDLEKNTFVLGDPFMRKYFTVYDYDNHTVGFALAKNL | soluble |
| MGSDKIHHHHHHMDIAMVYSDRLLSPQIPPSRKLRVLKEVEIRLIEGEEQEVEELIMQIHSEEYFSRIRSHPFFENAVENVKCILTGLKALKDYDAVIVPVTTAGHLAEQSRMRGYCLLNGLAIAVKAAESYGRIAVIETDAHHGKASIVSEERATFFCIGRRECEISEDLRCVLGRRMGKDYVKSFEELVERVKEYDPNLVIWYLGLDLDSREYAEMPFGREEWEKLVKNFMKMAEGRKSLIMLALGLRDDVLKDIVGLFAGW | not soluble |
| MKFKIHSDITYQVMSPTTFIFNVHALRTESQHILDESLIVTPPIEIEEFSYNSGTSRFVRLKATENTTFSMSYTATVDTQYKVIDQRQELETVPVVDLDGDIIPFLFPSRYCQSDKLQKLAYKEFGKIENVYSKVLAITDWIYNNVEYISGSTNSQTSAFDTITERAGVCRDFAHLGIALCRALSIPARYFTGYAFKLNPPDFHACFEAYIGGNWIIFDATRLVPLNGLVKIATGRDAADAAVASIFGNASSTNMHVECASLDTDFTPFWYDKNSLKGLSFQ | soluble |
| MKTSPRSNRLHIALFGKRNSGKSSLINALTNQNAALVSDIAGTTTDPVYQPMEIHGIGPCVFIDTAGFDDEGELGSLRIERTLQAADKADIALMVCCDTELSEEQRWIELLKERNIPYLLVLNKADLLEKPDEVADKLEQQTGQHPLIVSAKEKTGIDSIRQSILHRLPELNEQPDIVGDLANEGDVVLLVMPQDIQAPKGRLILPQVQTLRELLDKKCITLSCTTDQLDNALKALSVPPSLIITDSQVFRTVYEKKPPQSRLTSFSVLFARYKGDIDYYTEGAYIIDQLTENSRVLIAEACTHAPLSEDIGRVKLPRMLRKRIGEKLHIDIVSGNDFPKDLNCYDLIIHCGACMFNRKHVLNRIVKAKAQGVPMTNYGIVIAYINGIPFH | soluble |
| MTRPVIVPFFISHQGCPHRCVFCDQERIAGRAGRLPSAAEIHSAVKTFGRGRPVEAAFYGGTFTSLPRNEQERLLAALQPLRHDGSVRSVRLSTRPDALDAETAGFLKSMGVASVELGVQSMDDQVLDVSGRGHSAADTVRAFDVLRSEGIAVGAQLMPGLPGDSRERSLDSLTRILDLKPVSLRIYPTLVVAGTRLAEFWAEGSYTPLTLADAVPLCADMLLACKRAGVPVIRLGLQPTDILERSVLAGPWHPALRQLVEGELWYRLLERLTTGLAAGTVVSVACAPARISDVVGQRRVNLSRLLERRGIVVTGVAGCPTAAPDTLTLTHAGGTVAGSLTD | not soluble |
| MQFFISSAILFSYAFCQSIPNVILTGEPRVVARRILNVDMKAAQQLALPDDQQHVRYQVNVVRNQENPSDSTYLTGERTPVTVYRRILRPARITFTGDGVITDSWQGTSDAVEMESWTLNRRPTIDGSFVQPTQNQQGAFH | not soluble |
| MGFLKILRKQRAREREMRILILGLDNAGKTTLMKKFLDEPTDTIEPTLGFDIKTVHFKDFQLNLWDVGGQKSLRSYWKNYFESTDALIWVVDSSDRERLLQCSEELKKLLGEERLAGASLLVLANKSDLPGAIDVNSIAQVLDLHSIKSHHWKIFSCCALSGDRLVQAMTWLCDDVGSRLFILD | not soluble |
| MGHHHHHHSHMAATAAVSPSDYLQPAASTTQDSQPSPLALLAATCSKIGPPAVEAAVTPPAPPQPTPRKLVPIKPAPLPLSPGKNSFGILSSKGNILQIQGSQLSASYPGGQLVFAIQNPTMINKGTRSNANIQYQAVPQIQASNSQTIQVQPNLTNQIQIIPGTNQAIITPSPSSHKPVPIKPAPIQKSSTTTTPVQSGANVVKLTGGGGNVTLTLPVNNLVNASDTGAPTQLLTASCQTGMLNSTRMFLFLAFINVL | not soluble |
